Assay results reported in PMC8902620, “Oligomerization of DNA replication regulatory protein RADX is essential to maintain replication fork stability” (The Journal of Biological Chemistry, 2022).
Positions count from the first letter of the chain named. Each block holds one binder with its values, some of them ahead of it.

Assays:
[1] = molecular target: T1, full-length RADX, wild type, tagged with mCherry-FLAG or with GFP-HA (human, UniProt Q6NSI4 1-855); experiment: co-IP; purified mCherry-FLAG proteins mixed with purified GFP-HA-RADX and captured on GFP-trap magnetic agarose beads, 1 h at 4 °C; 50 mM Tris pH 7.5, 250 mM NaCl, 10% glycerol, 0.05% NP-40; immunoblot; conditions: both partners purified
T1 construct: RADX (cxorf57), human, full length; Two differently tagged copies of the same protein, written as one molecule; The GFP-HA copy is the one captured on GFP beads in the tests with purified proteins; The mCherry-FLAG copy is the one fished out there, and is the bait of the FLAG co-IP from lysate; also called mCherry-FLAG-RADX; m-Cherry-FLAG-RADX; source: HEK293T, transfected, in lysate; HEK293T, …

[2] = molecular target: the molecule itself; experiment: SEC; purified MBP-RADX on Superdex 200 Increase 10/300 GL; peak fractions pooled and reapplied; 50 mM Tris pH 7.5, 300 mM NaCl, 10% glycerol, 1 mM DTT; size by molecular weight standards

B1: mCherry-FLAG-RADX domain 5 (744–855) (domain or fragment, human, UniProt Q6NSI4 744-855, looked up)
chain: SARSLGHFEVTILGLNHEIAIDVAFLPMYCPEDIRTSQIDTLLTSMNYSCAYPQDTTGNDRLPGPRAVAGDIIKAATELDRVHIVGILDICNLGNNKVEVYLHKIYSPENTS
notes: also called pTM44; source: HEK293T, purified (anti-FLAG M2 beads, 3x FLAG peptide, Superdex 200)
binding result [1]: binds

B3: MBP-RADX (maltose-binding protein-tagged RADX) (natural protein, human, UniProt Q6NSI4 1-855, looked up)
chain: MSGESGQPEAGPSHAGLDWPNPERNRAGVPGGVIRRAGSQGPRSWIQKVLEQIMDSPRQCVTPSEVVPVTVLAVQRYLLEDEPRDTVPKPPLYCYDVTISDGVYQEKCYLDPSLNSLVYQNILKVGIQMRISRVSCLYNEKRIGQGILCIDNVHCGETSDSISLETPFRNRAHQEKPERPLRGGKSHYLALWNNEDPYGDIWLTDKQPEEHNFSDTKIISLSHLEMTWTNRRNFPALLVRILHKSKLRYYGKPDKKMIEPYQTFLEVADSSGTVSVIMWNALCPEWYKSLRVGLVLLLQDYSVKKSYPFRIQPVPVDPQIKLISTMEICLNLRDPPTNIIIIPEKQVKPEWRLPKLNHRFTTRSELDDMPENCICDVIGLLVFVGRVQRSKKKENREDFWSYRWIHIADGTSEQPFIVELFSTSQPEIFENIYPMAYFVCTQLKVVRNDNQVPKLLYLTTTNESGVFITGHRGQPYTYDAKVKNFIQWIRTKSDSGEQKNMVIGGYYPYPPVPETFSKYSSSIKVESLLTAISEVRKEIEDLQYREQKRIAIQGIITAIKYIPHSSATESASASETLRNANRPSTSQAARVEIQERNGKRHQDDEPVNSQYFQTTSTNLSLSNKIRILQGPHANPVAVPQPGASVQTKGIKPGMPSIFNRRANINANLQGKARKTISDRWESQLWREKKFGLIDHLHYSRVYPESIPRKFMFEHRKFLSDQYNSQPAKYVPPEGRPPKLDDFKSARSLGHFEVTILGLNHEIAIDVAFLPMYCPEDIRTSQIDTLLTSMNYSCAYPQDTTGNDRLPGPRAVAGDIIKAATELDRVHIVGILDICNLGNNKVEVYLHKIYSPENTS
notes: RADX (cxorf57), human; also called MBP-tagged RADX; cxorf57; source: insect cells, purified
stoichiometry N [2]: ~2

Results, then the binder that gave them:

binding result [1]: binds
B2: mCherry-FLAG-RADX N-terminal fragment (2–675) (domain or fragment, human, UniProt Q6NSI4 2-675, looked up)
chain: SGESGQPEAGPSHAGLDWPNPERNRAGVPGGVIRRAGSQGPRSWIQKVLEQIMDSPRQCVTPSEVVPVTVLAVQRYLLEDEPRDTVPKPPLYCYDVTISDGVYQEKCYLDPSLNSLVYQNILKVGIQMRISRVSCLYNEKRIGQGILCIDNVHCGETSDSISLETPFRNRAHQEKPERPLRGGKSHYLALWNNEDPYGDIWLTDKQPEEHNFSDTKIISLSHLEMTWTNRRNFPALLVRILHKSKLRYYGKPDKKMIEPYQTFLEVADSSGTVSVIMWNALCPEWYKSLRVGLVLLLQDYSVKKSYPFRIQPVPVDPQIKLISTMEICLNLRDPPTNIIIIPEKQVKPEWRLPKLNHRFTTRSELDDMPENCICDVIGLLVFVGRVQRSKKKENREDFWSYRWIHIADGTSEQPFIVELFSTSQPEIFENIYPMAYFVCTQLKVVRNDNQVPKLLYLTTTNESGVFITGHRGQPYTYDAKVKNFIQWIRTKSDSGEQKNMVIGGYYPYPPVPETFSKYSSSIKVESLLTAISEVRKEIEDLQYREQKRIAIQGIITAIKYIPHSSATESASASETLRNANRPSTSQAARVEIQERNGKRHQDDEPVNSQYFQTTSTNLSLSNKIRILQGPHANPVAVPQPGASVQTKGIKPGMPSIFNRRANINANLQGKARKT
notes: also called pTM59; source: HEK293T, purified (anti-FLAG M2 beads, 3x FLAG peptide, Superdex 200)

binding result [1]: binds
B4: mCherry-FLAG-RADX Y849A (natural protein, human, UniProt Q6NSI4 1-855, looked up)
chain: B3 chain with Y849A
notes: RADX, human, full length with one point mutation; also called pTM158; source: HEK293T, purified (anti-FLAG M2 beads, 3x FLAG peptide, Superdex 200)

binding result [1]: binds
B5: mCherry-FLAG-RADX C-terminal fragment (675–855) (domain or fragment, human, UniProt Q6NSI4 675-855, looked up)
chain: TISDRWESQLWREKKFGLIDHLHYSRVYPESIPRKFMFEHRKFLSDQYNSQPAKYVPPEGRPPKLDDFKSARSLGHFEVTILGLNHEIAIDVAFLPMYCPEDIRTSQIDTLLTSMNYSCAYPQDTTGNDRLPGPRAVAGDIIKAATELDRVHIVGILDICNLGNNKVEVYLHKIYSPENTS
notes: also called pTM67; source: HEK293T, purified (anti-FLAG M2 beads, 3x FLAG peptide, Superdex 200)
